Laboratory results published in patent publication US20230381328A1, “COMPOUND FOR THE PREVENTION OR TREATMENT OF MYASTHENIA GRAVIS” (ABLEVIA BIOTECH GMBH, priority 2020, published 2023).
Where no end group is shown, it is not given here.

Biological target: monoclonal antibody mAB 198
Assay: peptide microarray, fluorescence, linear peptide

Binder | relative signal [%]
VPLRWNPAD | 7.6
LRVNPADYG | 31.6
HWNPADY [HWNPADY, linear mimotope] | 7.4
VDCNLKFNP | 6.8
LRPNPADYG | 6.1
RGNPADY [RGNPADY, linear mimotope] | 6.9
SLRFNPADY | 6.5
QWVDCNLKFNP | 6.4
HSLRWNPAD | 6.6
VDCNLKYNP | 6.1
LRWNPADYPGI | 6.5
YNLPWNP [YNL PWNP, linear mimotope] | 7.6
RLRGNPADY | 6.9
SLRVNPADY | 6.7
GSLRYNP [GSLRYNP, linear mimotope] | 34.4
CNLKYNP [CNLKYNP, linear mimotope] | 6.7
DVRLRWNPSDY | 6.8
NPDDYGH [NPDDYGH, linear mimotope] | 7.7
HRLRWNPAD | 6.7
RTNPADY [RTNPADY, linear mimotope] | 7.2
GGGSLRYNP | 7.1
RIRWNPADY | 6.8
LRWNPADYHGI | 7.2
ALRWNPADY | 6
RLRYNPADY | 6.5
VDYNLKFNP | 7.6
NPADYGN [NPADYGN, linear mimotope] | 6.5

Biological target: monoclonal antibody mAB 198
Assay: peptide microarray, fluorescence, cyclic peptide

Binder | relative signal [%]
NPADYRG (also: cyclic peptide, ring type and places not given here) [NPADYRG, cyclic mimotope] | 27.4
LRRNPAD (also: cyclic peptide, mode of cyclisation not given here) [LRRNPAD, cyclic mimotope] | 28.2
RLRINPADY (also: cyclic peptide, ring type and places not given here) | 25.5
RLRLNPADY (also: cyclic peptide, ring type and places not given here) | 37.3
RINPADYGG (also: cyclic peptide, ring type and places not given here) | 23.1
LRRNPADYG (also: cyclic peptide, mode of cyclisation not given here) | 23.4
RLRYNPADY (also: cyclic peptide, ring type and places not given here) | 24.5
RGNPADY (also: cyclic peptide, ring type and places not given here) [RGNPADY, cyclic mimotope] | 23.8
VRLRWNPADYP (also: cyclic peptide, mode of cyclisation not given here) | 100
WNPADYR (also: cyclic peptide, mode of cyclisation not given here) [WNPADYR, cyclic mimotope] | 24.9
RLNPADY (also: cyclic peptide, ring type and places not given here) [RLNPADY, cyclic mimotope] | 42.3
RLRVNPADY (also: cyclic peptide, ring type and places not given here) | 61.3
GGSLRINPADY (also: cyclic peptide, mode of cyclisation not given here) | 25.4
LRLNPADYG (also: cyclic peptide, mode of cyclisation not given here) | 28.6
SLRINPADY (also: cyclic peptide, mode of cyclisation not given here) | 28
RFNPADY (also: cyclic peptide, ring type and places not given here) [RFNPADY, cyclic mimotope] | 37.5
RRNPADY (also: cyclic peptide, ring type and places not given here) [RRNPADY, cyclic mimotope] | 23.5
RINPADY (also: cyclic peptide, ring type and places not given here) [RINPADY, cyclic mimotope] | 28.9
LRINPADYG (also: cyclic peptide, mode of cyclisation not given here) | 22.8
WIDVRLRGNPA (also: cyclic peptide, mode of cyclisation not given here) | 43.2
DVRLRINPADY (also: cyclic peptide, mode of cyclisation not given here) | 31.4
DVRLRFNPADY (also: cyclic peptide, mode of cyclisation not given here) | 27.7
SLRVNPADY (also: cyclic peptide, mode of cyclisation not given here) | 26.5
GGSLRVNPADY (also: cyclic peptide, mode of cyclisation not given here) | 22.5
RLRGNPADY (also: cyclic peptide, ring type and places not given here) | 32.7
DVRLRVNPADY (also: cyclic peptide, mode of cyclisation not given here) | 30.2
DVRLRGNPADY (also: cyclic peptide, mode of cyclisation not given here) | 25
LRVNPADYG (also: cyclic peptide, mode of cyclisation not given here) | 45.1
RGNPADYGG (also: cyclic peptide, ring type and places not given here) | 22.2
SLRLNPADY (also: cyclic peptide, mode of cyclisation not given here) | 21.8
